Data taken from patent publication US20200239573A1 (CRESCENDO BIOLOGICS, published 2020).
Where a chain is given by its changes, count along the chain named. One block for each binder: values may come before it.

Experiments:
[1] = molecular target: T1, human PD-1 expressed on cells (CHO human PD-1 cells) (human, UniProt Q15116 21-288); experiment: cell-based or functional assay
[2] = molecular target: T1, human PD-1 expressed on cells (CHO …); experiment: cell-based or functional assay; remark: listed apart in the source
[3] = molecular target: T2, recombinant human PD-1 Fc chimera (human, UniProt Q15116 25-167); experiment: SPR Biacore T200, PD-1-Fc captured on protein G, single cycle kinetics
T2 construct: Bought protein; also called human PD-1-huFc; huPD-1-Fc; not shown: human Fc
T2 sequence (Q15116 25-167 limits assumed, change not shown): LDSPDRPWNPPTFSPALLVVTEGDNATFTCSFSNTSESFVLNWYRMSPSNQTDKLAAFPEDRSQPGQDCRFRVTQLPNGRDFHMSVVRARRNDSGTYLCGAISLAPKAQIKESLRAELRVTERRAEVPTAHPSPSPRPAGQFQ
Protocol: Single cycle kinetics assays were used to study the interaction between human Fc tagged human PD-1 with Humabody® on a Biacore T200 instrument (GE Healthcare). Protein G was amine coupled to two flow cells of a CM-5 chip. Human Fc tagged recombinant human PD-1 was captured onto one of the flow cells. The other was used as the reference flow cell. A five point, three-fold dilution series of each Humabody® was made with a top concentration within the range of 50 to 150 nM. The binding kinetics were followed by flowing the Humabody® over the chip surface in HBS EP+ buffer at a flow rate of 30 μl/min. The contact time for each of the association steps was 180 seconds and the dissociation step was 3600 seconds. The data was fitted to a 1:1 binding model after double reference subtraction using the Biacore T200 Evaluation software.

[4] = molecular target: T3, Strep tagged recombinant human PD-1 (human, UniProt Q15116 25-170, limits assumed); experiment: SPR Biacore T200, strep-tagged PD-1 amine-coupled, single cycle kinetics
T3 construct: the whole entry is named; also called strep tagged human PD-1; not shown: Strep tag
T3 sequence (Q15116 25-170 limits assumed): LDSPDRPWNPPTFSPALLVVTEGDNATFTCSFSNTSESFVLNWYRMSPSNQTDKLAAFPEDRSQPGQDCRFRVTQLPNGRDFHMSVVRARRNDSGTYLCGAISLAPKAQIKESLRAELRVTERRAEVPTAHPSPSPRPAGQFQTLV
Protocol: Single cycle kinetics assays were used to study the interaction between human PD-1 with Humabody® on a Biacore T200 instrument (GE Healthcare). Strep tagged recombinant human PD-1 was amine coupled to one flow cell of a CM-5 chip to create a low density surface (14 RU) using standard Biacore reagents. For the reference flow cell, a blank immobilisation was carried out. A five-point, three-fold dilution series of each Humabody® was made with a top concentration of 25 nM. The binding kinetics were followed by flowing the Humabody® over the chip surface in HBS EP+ buffer at a flow rate of 30 μl/min. The contact time for each of the association steps was 180 seconds and the dissociation step was 3300 seconds. The data was fitted to a 1:1 binding model after double reference subtraction using the Biacore T200 Evaluation software.

[5] = molecular target: human PD-1 on primary human CD4+ T cells (human, UniProt Q15116 21-288); experiment: flow cytometry on PHA-stimulated human CD4+ T cells (live cell gate)
Chain of human PD-1 on primary human CD4+ T cells (Q15116 21-288): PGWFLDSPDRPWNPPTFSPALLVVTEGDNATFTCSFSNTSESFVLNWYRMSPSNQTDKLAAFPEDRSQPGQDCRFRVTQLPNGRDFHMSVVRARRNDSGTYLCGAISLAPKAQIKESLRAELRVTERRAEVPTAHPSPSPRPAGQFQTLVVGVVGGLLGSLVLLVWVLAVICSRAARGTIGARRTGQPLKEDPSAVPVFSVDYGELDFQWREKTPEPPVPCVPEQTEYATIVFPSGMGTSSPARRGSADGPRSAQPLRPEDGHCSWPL
Protocol: Binding of monovalent single domain antibodies and multivalent binding agents to T cells was measured using flow cytometry. […] T-cells were stimulated with 2.5 μg/ml PHA for 2-4 days in RPMI media supplemented with 10% FBS, 2 mM Glutamine, 1× Pen/Strep. Cells were transferred into 96 well plates (75000 per well), blocked for 10 mins with PBS/1% BSA, then incubated with serially diluted VH in staining buffer (PBS/1% BSA) for 1 hour at 4° C. Cells were washed with staining buffer by centrifugation then incubated with 10 μg/ml biotinylated Anti His antibody for 40 mins at 4° C. Cells were washed again then stained with Streptavidin Alexa Fluor-488 (10 μg/ml) and 1:5000 diluted Live Dead near IR stain (Molecular Probes cat no. L10119) for 30 mins at 4° C. After further washing cells were fixed and fluorescence measured by flow cytometry.

[6] = molecular target: T2, recombinant human PD-1 Fc chimera; experiment: HTRF inhibition; biotinylated PD-L2-Fc vs Eu-cryptate PD-1-Fc
[7] = molecular target: T2, recombinant human PD-1 Fc chimera; experiment: HTRF inhibition; strep-tagged PD-L1 vs PD-1-Fc
Protocol: All samples and reagents were prepared in HTRF assay buffer containing PBS, 0.1% (w/v) BSA and 0.4M Potassium Fluoride. […] Total binding controls containing periplasmic extract sample buffer and non-specific binding controls containing excess untagged competitor were set up on each plate for data normalisation. Time-resolved fluorescent emission at 620 nm and 665 nm was measured following excitation at 337 nm on the BMG PHERAstar plate reader. Data was expressed as a % of the total binding control (% control) after subtraction of the background signal determined from the non-specific binding control wells.

[8] = molecular target: T1, human PD-1 expressed on cells (CHO …); experiment: FMAT inhibition; 200 pM PD-L2 on CHO human PD-1 cells
Protocol: (§1) All reagents and serially diluted VH were prepared in FMAT assay buffer. […] Plates were incubated for 2 hours at room temperature then fluorescence measured in the FL2 (502 nm-537 nm) and FL5 (677-800 nm) channels on the Mirrorball plate reader (TTP) following excitation at 488 nm and 640 nm. Data was expressed as a % of the total binding control (i.e. % control) after subtraction of the background signal determined from the non-specific binding control wells.

[9] = molecular target: T1, human PD-1 expressed on cells (CHO …); experiment: cell-based or functional assay; remark: listed apart in the source
[10] = molecular target: T1, human PD-1 expressed on cells (CHO …); experiment: FMAT inhibition; 100 pM PD-L1-Fc on CHO human PD-1 cells
Protocol: as §1

[11] = molecular target: T1, human PD-1 expressed on cells (CHO …); experiment: FMAT 1.57 epitope competition assay on CHO human PD-1 cells; competitor: 1.57-Strep tagged protein; 1 day in mouse serum
Protocol: (§2) For the epitope competition assay reagents were prepared in FMAT assay buffer. […] Plates were incubated for a minimum of 1.5 hours at room temperature then fluorescence measured in the FL2 (502 nm-537 nm) and FL5 (677-800 nm) channels on the Mirrorball plate reader (TTP) following excitation at 488 nm and 640 nm. Data was expressed as a % of the total binding control (i.e. % control) after subtraction of the background signal determined from the non-specific binding control wells.
(§3) Serum stability of VH and multivalent VH constructs was assessed by measurement of their activity following incubation for 0, 1, 4 or 7 days in mouse serum (Sigma M5905).

[12] = molecular target: T1, human PD-1 expressed on cells (CHO …); experiment: FMAT 1.57 epitope competition assay on CHO human PD-1 cells; competitor: 1.57-Strep tagged protein; 0 days in mouse serum
Protocol: as §2, §3

[13] = molecular target: human PD-1 expressed on cells (CHO human PD-1 cells) (human) (UniProt Q15116); experiment: FMAT inhibition assay on CHO human PD-1 cells; blocked ligand: human Fc tagged human PD-L1
Chain of human PD-1 expressed on cells (CHO human PD-1 cells) (human) (Q15116 21-288): as above

T1 sequence (Q15116 21-288): as above

EC50 (M), reporter assay [1]: 1e-09 M
EC50 (M), human PD-1 reporter gene assay [2]: 1e-09 M
dissociation rate constant (koff) [3]: 8.4e-05 s⁻¹
koff [3]: 1.14e-07 s⁻¹
kon [3]: 1.36e+06 M⁻¹ s⁻¹
Kd [4]: 0.0222 nM
koff [4]: 1.4e-05 s⁻¹
kon [4]: 630000 M⁻¹ s⁻¹
B1: 1.57-9GS-1.57 (other)
chain: QVQLVESGGGLVKPGGSLRLSCAASGFTFSDNSMTWMRQAPGKGLEWVSYISSGGGVIFYADSVKGRFTISRDNAKNSLYLQMNSLRADDTAVYYCAREAPLRLGESPHDAFDISGQGTMVTVSSGGGGSGGGGSGGGGSGGGGSGGGGSGGGGSGGGGSGGGGSGGGGSQVQLVESGGGLVKPGGSLRLSCAASGFTFSDNSMTWMRQAPGKGLEWVSYISSGGGVIFYADSVKGRFTISRDNAKNSLYLQMNSLRADDTAVYYCAREAPLRLGESPHDAFDISGQGTMVTVSS
notes: bivalent construct of two VH domains in one chain

EC50 (read off the curve) [5]: ~0.2 nM
EC50 (M), reporter assay [1]: 8.4e-10 M
EC50 (M), human PD-1 reporter gene assay [2]: 8.4e-10 M
Kd [4]: 0.0171 nM
koff [4]: 1.32e-05 s⁻¹
kon [4]: 773000 M⁻¹ s⁻¹
B2: 1.57-6GS-1.57 (other)
chain: QVQLVESGGGLVKPGGSLRLSCAASGFTFSDNSMTWMRQAPGKGLEWVSYISSGGGVIFYADSVKGRFTISRDNAKNSLYLQMNSLRADDTAVYYCAREAPLRLGESPHDAFDISGQGTMVTVSSGGGGSGGGGSGGGGSGGGGSGGGGSGGGGSQVQLVESGGGLVKPGGSLRLSCAASGFTFSDNSMTWMRQAPGKGLEWVSYISSGGGVIFYADSVKGRFTISRDNAKNSLYLQMNSLRADDTAVYYCAREAPLRLGESPHDAFDISGQGTMVTVSS
notes: as for B1

IC50 [6]: 39 nM
IC50 [7]: 13 nM
EC50 (read off the curve) [5]: ~2 nM
B3: Humabody® 1.2 (VHH)
VHH: EVQLLESGGGLVKPGGSLRLSCAASGFTFSDYTMTWMRQAPGKGLEWVSYISTGGSIKYYTDSVKGRFTISRDNAKNSLYLQMNSLRADDTAVYYCAREAPLRLGESPHDAFDIWGQGTMVTVSS
notes: human VH single domain antibody

IC50 [8]: 10 nM
Reporter Assay EC50 [9]: 14 nM
IC50 [10]: 5.7 nM
B4: Humabody® 1.62 (VHH)
VHH: B3 VHH with E1Q, L5V, Y32S, T33S, T53S, S56A, I57V, Y59F, W115S
notes: as for B3

IC50 [8]: 9 nM
Reporter Assay EC50 [9]: 25 nM
IC50 (read off the curve) [11]: ~800 pM
IC50 (read off the curve) [12]: ~900 pM
IC50 [10]: 5.8 nM
B5: Humabody® 1.64 (VHH)
VHH: B3 VHH with L5V, Y32S, T33S, T53S, S56G, I57V, Y59F, T61A, W115S
notes: as for B3

IC50 [8]: 6.9 nM
Reporter Assay EC50 [9]: 12 nM
IC50 [10]: 4.5 nM
B6: Humabody® 1.63 (VHH)
VHH: B3 VHH with L5V, Y32S, T33S, T53S, S56G, I57V, Y59F, W115S
notes: as for B3

IC50 [8]: 8.5 nM
Reporter Assay EC50 [9]: 11 nM
IC50 [10]: 5.8 nM
B7: Humabody® 1.65 (VHH)
VHH: B3 VHH with E1Q, L5V, Y32S, T33S, T53S, S56G, I57V, Y59F, T61A, W115S
notes: as for B3

IC50 (read off the curve) [13]: 900 pM
B8: 1.57-1.57 (protein, part only; not given: Linker of unstated length, part only)
VH-linker-VH, part: QVQLVESGGGLVKPGGSLRLSCAASGFTFSDNSMTWMRQAPGKGLEWVSYISSGGGVIFYADSVKGRFTISRDNAKNSLYLQMNSLRADDTAVYYCAREAPLRLGESPHDAFDISGQGTMVTVSSQVQLVESGGGLVKPGGSLRLSCAASGFTFSDNSMTWMRQAPGKGLEWVSYISSGGGVIFYADSVKGRFTISRDNAKNSLYLQMNSLRADDTAVYYCAREAPLRLGESPHDAFDISGQGTMVTVSS
